From US20180155451A1 (published 2018)

T1: FcγRIIb extracellular domain with C-terminal His tag (human, UniProt P31994 43-217)
T1 construct: extracellular domain; also called 2b; FcgRIIb
T1 sequence (looked up): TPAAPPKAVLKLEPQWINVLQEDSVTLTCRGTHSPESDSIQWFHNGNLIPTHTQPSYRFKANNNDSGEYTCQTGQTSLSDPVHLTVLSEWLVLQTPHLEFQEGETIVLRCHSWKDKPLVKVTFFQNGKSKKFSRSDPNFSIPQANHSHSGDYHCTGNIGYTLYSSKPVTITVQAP

B1: GpH7-A5/GpH7-B3 variant E269_02A/GpL16-k0 (antibody, human IgG1, kappa)
heavy 1: not shown
heavy 2: not shown
light: DIVMTQSPLSLPVTPGEPASISCQASESLVHSNRNTYLHWYLQKPGQSPQLLIYKVSNRFSGVPDRFSGSGSGTDFTLKISRVEAEDVGVYYCSQNTHVPPTFGQGTKVEIERTVAAPSVFIFPPSDEQLKSGTASVVCLLNNFYPREAKVQWKVDNALQSGNSQESVTEQDSKDSTYSLSSTLTLSKADYEKHKVYACEVTHQGLSSPVTKSFNRGEC
notes: He Ab: alteration in one H chain only; also called He Ab
B2: GpH7-A5/GpH7-B3 variant E269_03V/GpL16-k0 (antibody, human IgG1, kappa)
heavy 1: not shown
heavy 2: not shown
light: B1 light
notes: as for B1
B3: GpH7-A5/GpH7-B3 variant L234_16H/GpL16-k0 (antibody, human IgG1, kappa)
heavy 1: not shown
heavy 2: not shown
light: B1 light
notes: as for B1
B4: GpH7-A5/GpH7-B3 variant G236_07I/GpL16-k0 (antibody, human IgG1, kappa)
heavy 1: not shown
heavy 2: not shown
light: B1 light
notes: as for B1
B5: GpH7-A5/GpH7-B3 variant L234_15Y/GpL16-k0 (antibody, human IgG1, kappa)
heavy 1: not shown
heavy 2: not shown
light: B1 light
notes: as for B1
B6: GpH7-A5/GpH7-B3 variant L234_03V/GpL16-k0 (antibody, human IgG1, kappa)
heavy 1: not shown
heavy 2: not shown
light: B1 light
notes: as for B1
B7: GpH7-A5/GpH7-B3 variant L235_05P/GpL16-k0 (antibody, human IgG1, kappa)
heavy 1: not shown
heavy 2: not shown
light: B1 light
notes: as for B1
B8: GpH7-A5/GpH7-B3 variant L234_11K/GpL16-k0 (antibody, human IgG1, kappa)
heavy 1: not shown
heavy 2: not shown
light: B1 light
notes: as for B1
B9: GpH7-A5/GpH7-B3 variant G236_16H/GpL16-k0 (antibody, human IgG1, kappa)
heavy 1: not shown
heavy 2: not shown
light: B1 light
notes: as for B1
B10: GpH7-A5/GpH7-B3 variant L234_12R/GpL16-k0 (antibody, human IgG1, kappa)
heavy 1: not shown
heavy 2: not shown
light: B1 light
notes: as for B1
B11: GpH7-A5/GpH7-B3 variant L234_07I/GpL16-k0 (antibody, human IgG1, kappa)
heavy 1: not shown
heavy 2: not shown
light: B1 light
notes: as for B1
B12: GpH7-A5/GpH7-B3 variant E269_18N/GpL16-k0 (antibody, human IgG1, kappa)
heavy 1: not shown
heavy 2: not shown
light: B1 light
notes: as for B1
B13: GpH7-A5/GpH7-B3 variant E269_11K/GpL16-k0 (antibody, human IgG1, kappa)
heavy 1: not shown
heavy 2: not shown
light: B1 light
notes: as for B1
B14: GpH7-A5/GpH7-B3 variant L235_11K/GpL16-k0 (antibody, human IgG1, kappa)
heavy 1: not shown
heavy 2: not shown
light: B1 light
notes: as for B1
B15: GpH7-A5/GpH7-B3 variant G236_12R/GpL16-k0 (antibody, human IgG1, kappa)
heavy 1: not shown
heavy 2: not shown
light: B1 light
notes: as for B1
B16: GpH7-A5/GpH7-B3 variant G236_20W/GpL16-k0 (antibody, human IgG1, kappa)
heavy 1: not shown
heavy 2: not shown
light: B1 light
notes: as for B1
B17: GpH7-A5/GpH7-B3 variant E269_08L/GpL16-k0 (antibody, human IgG1, kappa)
heavy 1: not shown
heavy 2: not shown
light: B1 light
notes: as for B1
B18: GpH7-A5/GpH7-B3 variant L234_05P/GpL16-k0 (antibody, human IgG1, kappa)
heavy 1: not shown
heavy 2: not shown
light: B1 light
notes: as for B1
B19: GpH7-A5/GpH7-B3 variant E269_07I/GpL16-k0 (antibody, human IgG1, kappa)
heavy 1: not shown
heavy 2: not shown
light: B1 light
notes: as for B1
B20: GpH7-A5/GpH7-B3 variant E269_12R/GpL16-k0 (antibody, human IgG1, kappa)
heavy 1: not shown
heavy 2: not shown
light: B1 light
notes: as for B1
B21: GpH7-A5/GpH7-B3 variant G236_03V/GpL16-k0 (antibody, human IgG1, kappa)
heavy 1: not shown
heavy 2: not shown
light: B1 light
notes: as for B1
B22: GpH7-A5/GpH7-B3 variant G236_04F/GpL16-k0 (antibody, human IgG1, kappa)
heavy 1: not shown
heavy 2: not shown
light: B1 light
notes: as for B1
B23: GpH7-A5/GpH7-B3 variant L235_13S/GpL16-k0 (antibody, human IgG1, kappa)
heavy 1: not shown
heavy 2: not shown
light: B1 light
notes: as for B1
B24: GpH7-A5/GpH7-B3 variant L235_03V/GpL16-k0 (antibody, human IgG1, kappa)
heavy 1: not shown
heavy 2: not shown
light: B1 light
notes: as for B1
B25: GpH7-A5/GpH7-B3 variant L235_18N/GpL16-k0 (antibody, human IgG1, kappa)
heavy 1: not shown
heavy 2: not shown
light: B1 light
notes: as for B1
B26: GpH7-A5/GpH7-B3 variant E269_16H/GpL16-k0 (antibody, human IgG1, kappa)
heavy 1: not shown
heavy 2: not shown
light: B1 light
notes: as for B1
B27: GpH7-A5/GpH7-B3 variant L235_01G/GpL16-k0 (antibody, human IgG1, kappa)
heavy 1: not shown
heavy 2: not shown
light: B1 light
notes: as for B1
B28: GpH7-A5/GpH7-B3 variant E269_06M/GpL16-k0 (antibody, human IgG1, kappa)
heavy 1: not shown
heavy 2: not shown
light: B1 light
notes: as for B1
B29: GpH7-A5/GpH7-B3 variant G236_15Y/GpL16-k0 (antibody, human IgG1, kappa)
heavy 1: not shown
heavy 2: not shown
light: B1 light
notes: as for B1
B30: GpH7-A5/GpH7-B3 variant E269_13S/GpL16-k0 (antibody, human IgG1, kappa)
heavy 1: not shown
heavy 2: not shown
light: B1 light
notes: as for B1
B31: GpH7-A5/GpH7-B3 variant L234_19Q/GpL16-k0 (antibody, human IgG1, kappa)
heavy 1: not shown
heavy 2: not shown
light: B1 light
notes: as for B1
B32: GpH7-A5/GpH7-B3 variant G236_08L/GpL16-k0 (antibody, human IgG1, kappa)
heavy 1: not shown
heavy 2: not shown
light: B1 light
notes: as for B1
B33: GpH7-A5/GpH7-B3 variant H268_06M/GpL16-k0 (antibody, human IgG1, kappa)
heavy 1: not shown
heavy 2: not shown
light: B1 light
notes: as for B1
B34: GpH7-A5/GpH7-B3 variant G236_05P/GpL16-k0 (antibody, human IgG1, kappa)
heavy 1: not shown
heavy 2: not shown
light: B1 light
notes: as for B1
B35: GpH7-A5/GpH7-B3 variant L235_14T/GpL16-k0 (antibody, human IgG1, kappa)
heavy 1: not shown
heavy 2: not shown
light: B1 light
notes: as for B1

The binders below were run against T2, FcγRIIIa extracellular domain with C-terminal His tag (human, UniProt P08637 17-208) (assay: SPR; He/Con_3a over He/Con_2b (FcγRIIb)).
T2 construct: extracellular domain; also called 3a; FcgRIIIa
T2 sequence (P08637 17-208): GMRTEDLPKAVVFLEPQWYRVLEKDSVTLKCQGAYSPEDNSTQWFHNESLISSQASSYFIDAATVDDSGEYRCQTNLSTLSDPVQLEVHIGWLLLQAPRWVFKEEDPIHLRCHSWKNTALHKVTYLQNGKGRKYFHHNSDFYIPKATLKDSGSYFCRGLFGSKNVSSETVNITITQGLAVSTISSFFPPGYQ

Binder | He_3a/2b (IIIa/IIb)
B1 | 1.38 ratio
B2 | 1.25 ratio
B3 | 1.34 ratio
B4 | 1.93 ratio
B5 | 1.35 ratio
B6 | 1.25 ratio
B7 | 1.3 ratio
B8 | 1.88 ratio
B9 | 1.54 ratio
B10 | 1.95 ratio
B11 | 1.27 ratio
B12 | 1.29 ratio
B13 | 2.47 ratio
B14 | 6.06 ratio
B15 | 1.84 ratio
B16 | 2.33 ratio
B17 | 1.21 ratio
B18 | 1.21 ratio

Binder | He_3a/2b (IIIa/IIb)
B19 | 1.27 ratio
B20 | 1.72 ratio
B21 | 1.64 ratio
B22 | 2.21 ratio
B23 | 1.44 ratio
B24 | 1.48 ratio
B25 | 1.23 ratio
B26 | 1.33 ratio
B27 | 1.66 ratio
B28 | 1.25 ratio
B29 | 3.06 ratio
B30 | 1.31 ratio
B31 | 1.32 ratio
B32 | 1.21 ratio
B33 | 1.22 ratio
B34 | 1.95 ratio
B35 | 1.62 ratio

These binders were tested against T2, FcγRIIIa extracellular domain with … (assay: SPR, relative to GpH7-A5/GpH7-B3/GpL16-k0).

Binder | He/Con_3a
B1 | 68.7 control=100
B2 | 56.6 control=100
B3 | 79.5 control=100
B4 | 59.7 control=100
B5 | 130 control=100
B6 | 91.4 control=100
B7 | 71.1 control=100
B8 | 30.5 control=100
B9 | 43.1 control=100
B10 | 36.9 control=100
B11 | 103 control=100
B12 | 57.8 control=100
B13 | 44 control=100
B14 | 38.1 control=100
B15 | 12.5 control=100
B16 | 135 control=100
B17 | 52.1 control=100
B18 | 88.1 control=100

Binder | He/Con_3a
B19 | 55.8 control=100
B20 | 43.2 control=100
B21 | 57.7 control=100
B22 | 87 control=100
B23 | 69.6 control=100
B24 | 98 control=100
B25 | 67.3 control=100
B26 | 51.2 control=100
B27 | 58.8 control=100
B28 | 58.5 control=100
B29 | 121 control=100
B30 | 62.7 control=100
B31 | 79.8 control=100
B32 | 32.5 control=100
B33 | 80.3 control=100
B34 | 37.1 control=100
B35 | 75.8 control=100

These binders were tested against T1, FcγRIIb extracellular domain with … (assay: SPR, relative to GpH7-A5/GpH7-B3/GpL16-k0).

Binder | He/Con_2b
B1 | 49.9 control=100
B2 | 45.1 control=100
B3 | 59.4 control=100
B4 | 31 control=100
B5 | 96.3 control=100
B6 | 73.1 control=100
B7 | 54.7 control=100
B8 | 16.2 control=100
B9 | 27.9 control=100
B10 | 18.9 control=100
B11 | 80.9 control=100
B12 | 44.8 control=100
B13 | 17.8 control=100
B14 | 6.3 control=100
B15 | 6.8 control=100
B16 | 58.2 control=100
B17 | 42.9 control=100
B18 | 72.9 control=100

Binder | He/Con_2b
B19 | 43.9 control=100
B20 | 25.2 control=100
B21 | 35.3 control=100
B22 | 39.3 control=100
B23 | 48.2 control=100
B24 | 66.4 control=100
B25 | 54.9 control=100
B26 | 38.5 control=100
B27 | 35.4 control=100
B28 | 46.7 control=100
B29 | 39.5 control=100
B30 | 47.8 control=100
B31 | 60.3 control=100
B32 | 26.8 control=100
B33 | 65.7 control=100
B34 | 19 control=100
B35 | 46.8 control=100
